Experimental data reported in patent US5834273A, “Heat-stable and water soluble modified enzymes” (Wako Pure Chemical Industries, Ltd., priority 1991, dated 1998).

Target: T1, XOD (Bos taurus, UniProt P80457)
T1 construct: purchased Boehringer Mannheim GmbH
Experiment: Thermal stability of XOD
Type: physicochemical, cow
Details: 75 min, pH 7.0, 0.2 U/ml
Protocol: Measuring Method of XOD Activity
The method described in Method of Enzymatic Analysis, vol. 3, pages 212, 1983.
To 2 ml of aqueous solution containing 5 mg of pyromellitic acid-modified dextran obtained in Example 1(1), 65 mg of WSC was added. To the resulting solution maintained at pH 6.0 using a pH-stat, 0.5 ml of 10 mM phosphate buffer solution (pH 7.0) containing 10 mg of XOD (mfd. by Boehringer Mannheim GmbH., derived from cow milk) was added and reacted at 50° C. for 24 hours.
The thus obtained modified XOD and the intact XOD were dissolved in 20 mM phosphate buffer solution (pH 7.0) in an amount of 0.2 U/ml, respectively,and stored at a predetermined temperature for 75 min. to measure the change of residual activity.

T1 sequence (P80457 whole entry): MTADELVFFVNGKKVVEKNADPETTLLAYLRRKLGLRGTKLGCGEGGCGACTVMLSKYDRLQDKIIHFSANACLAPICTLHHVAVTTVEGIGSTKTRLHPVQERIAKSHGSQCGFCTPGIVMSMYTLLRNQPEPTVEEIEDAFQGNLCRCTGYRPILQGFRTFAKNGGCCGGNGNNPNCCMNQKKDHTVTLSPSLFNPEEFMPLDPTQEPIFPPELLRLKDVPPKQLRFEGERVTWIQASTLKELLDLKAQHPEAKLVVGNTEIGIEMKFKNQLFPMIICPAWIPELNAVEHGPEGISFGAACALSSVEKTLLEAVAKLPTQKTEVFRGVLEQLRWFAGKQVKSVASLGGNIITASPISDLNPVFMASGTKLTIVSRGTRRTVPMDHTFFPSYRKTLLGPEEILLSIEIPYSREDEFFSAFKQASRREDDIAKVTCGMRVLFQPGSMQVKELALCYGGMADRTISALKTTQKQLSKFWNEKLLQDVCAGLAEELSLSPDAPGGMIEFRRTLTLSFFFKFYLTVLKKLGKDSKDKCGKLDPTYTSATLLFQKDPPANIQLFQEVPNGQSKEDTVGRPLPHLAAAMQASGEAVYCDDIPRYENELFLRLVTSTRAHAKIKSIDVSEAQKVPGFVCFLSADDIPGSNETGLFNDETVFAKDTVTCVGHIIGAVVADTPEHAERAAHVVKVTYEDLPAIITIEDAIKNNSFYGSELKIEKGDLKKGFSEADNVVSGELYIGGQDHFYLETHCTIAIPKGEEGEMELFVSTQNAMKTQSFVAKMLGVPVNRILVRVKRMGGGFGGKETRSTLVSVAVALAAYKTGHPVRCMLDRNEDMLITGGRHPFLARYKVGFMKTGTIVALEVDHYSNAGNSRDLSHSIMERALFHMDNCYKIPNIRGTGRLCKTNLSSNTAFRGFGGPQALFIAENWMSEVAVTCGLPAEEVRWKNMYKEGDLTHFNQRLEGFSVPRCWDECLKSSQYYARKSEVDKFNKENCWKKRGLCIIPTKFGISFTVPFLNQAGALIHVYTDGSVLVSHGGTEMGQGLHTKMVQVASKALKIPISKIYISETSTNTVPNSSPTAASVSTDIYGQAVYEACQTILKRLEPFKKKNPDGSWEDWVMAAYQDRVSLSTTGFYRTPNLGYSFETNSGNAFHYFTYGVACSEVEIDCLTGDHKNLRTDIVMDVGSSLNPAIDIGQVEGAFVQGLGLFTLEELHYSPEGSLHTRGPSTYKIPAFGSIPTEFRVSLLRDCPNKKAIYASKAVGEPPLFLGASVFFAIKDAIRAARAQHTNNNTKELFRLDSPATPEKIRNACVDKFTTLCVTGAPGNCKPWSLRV

Q: For “Intact XOD: xanthine oxidase (E.C.1.2.3.2), mfd. by Boehringer Mannheim GmbH., derived from cow milk”, which Residual activity (56 °C) is on record?
A: 40.5%

Q: And the Residual activity (58 °C)?
A: 31.2%

Q: And the Residual activity (60 °C)?
A: 23.4%
